Assay results: patent publication US9951373B2, “Oplophorus-derived luciferases, novel coelenterazine substrates, and methods of use” (Promega Corporation, priority 2010, dated 2018)

Key:
[1] = Luminescence of 9B8 opt+K33N derived variants in E. coli; type: biochemical
Description: Luminescence generated from the lysates was measured using the novel PBI-3939 and native coelenterazine as substrates. The relative specificity of the variants for PBI-3939 and native coelenterazine was calculated as described previously.
A new OgLuc library was created using 9B8opt+K33N as a starting template. The random library was created using DIVERSIFY® PCR Random Mutagenesis Kit (ClonTech; Catalog #630703). Condition 5 (as listed in the user manual) was used to generate additional variants, and the average mutation rate was calculated to be 2.6 mutations per gene by compiling sequence data from 83 randomly selected clones. This PCR library was cloned into the pF4Ag-based, non-fusion vector background described previously and the sandwich background, i.e., Id-OgLuc-HT7 (described in Example 45). Variants in the pF4Ag-base non-fusion vector background are designated with (NF). Variants in the sandwich vector background are designated with (F). In order to clone the PCR product into both vectors, an amino acid, i.e., a glycine, was appended to the variant sequence in pF4Ag, generating a new position 170 in the OgLuc variant (“170G”). The 170G is present in the sandwich construct, but in this case is considered part of the linker between OgLuc and HT7. For each library, 4,400 E. coli clones were assayed as described previously with the following exceptions. […] The assay buffer contained 100 mM MES pH 6.0 instead of HEPES, and 35 mM thiourea. The assay volumes were as follows: 10 μL cells, 40 μL, lysis buffer, and 50 μL, assay buffer.
E. coli lysates containing the variants were prepared and analyzed as described previously. Luminescence generated from the lysates was measured using the novel PBI-3939 and native coelenterazine as substrates. The luminescence of the variants was normalized to the luminescence generated by 9B8 opt (Table 12). The relative specificity of the variants for PBI-3939 and native coelenterazine was calculated by dividing the luminescence of the variants using PBI-3939 as a substrate with the luminescence of the variants using native coelenterazine as a substrate (Table 12).

HEK293 cells = assay: Luminescence of OgLuc variants expressed in HEK293 cells; type: cell-based, human
Description: The PCR library in the pF4Ag-based non-fusion background was screened for additional variants with increased luminescence compared to 9B8 opt+K33N+170G (SEQ ID NOs: 68 and 69). Selected variants were then assayed in HEK293 and NIH3T3 cells. For each cell type, 15,000 cells were plated and grown overnight at 37° C. The next day, the cells were transfected as described in Example 25 with 10 ng pGL4.13 (Promega Corp.) as a transfection control and 100 ng of the OgLuc test DNA. The media was removed, and the cells were lysed with 100 μL of lysis buffer as described in Example 25 except the lysis buffer contained 100 mM MES pH 6.0 instead of HEPES, and luminescence measured using a GLOMAX® Luminometer.
Based on the above data, further combination variants were designed and generated (see Table 10) in the context of the pF4Ag-based non-fusion vector background without the 170G. The variants were analyzed in E. coli, HEK293 and NIH3T3 cells as described above and compared to 9B8 opt+K33N. The variants were also examined for luminescence with native coelenterazine.
The brightness of the variants expressed in HEK293 and NIH3T3 cells was measured as described previously. The luminescence of the variants was normalized to the luminescence generated by 9B8 opt (Table 27).

[2] = Km of L27V reversion variants, native coelenterazine; type: biochemical
Description: Relative activities <1 indicate the reversion is detrimental compared to the residue at that site in the L27V variant. Relative activities >1 indicate the reversion is favorable for activity compared to the residue at that site in the L27V variant. Some additional data on these mutants indicated the following: 166K, 54F, 54A and L27V were tested for thermal stability. The T1/2 60° C. for 166K, 54F, and 54A were 87, 74, and 33%, respectively, indicating these substitutions cause a reduction in thermal stability. […] This indicates higher substrate affinity for L27V, particularly for the position 54 substitutions.

[3] = Thermal stability of OgLuc variants at 60° C.; type: physicochemical; conditions: 60° C., assay buffer MES pH 6.0
Description: Aliquots were removed at different time-points and placed on dry ice to freeze the samples. […] Luminescence was measured on a GLOMAX® luminometer (Promega Corp.).
The thermal stability of the variants at 60° C. was examined as described above, except the assay buffer contained 100 mM MES pH 6.0 instead of HEPES.

NIH3T3 cells = assay: Luminescence in sandwich background, NIH3T3 cells; type: cell-based; conditions: non-sandwich versus sandwich
Description: The PCR library in the Id-OgLuc-HT7 sandwich background was screened for additional variants with increased luminescence compared to 9B8 opt+K33N in sandwich background. Selected variants were then assayed in HEK293 and NIH3T3 cells. […] 1F7 (F) (SEQ ID NOs: 84 and 85) and 15H1 (F) (SEQ ID NOs: 86 and 87) had at least 1.3 fold-increase in luminescence in E. coli. 1F7 (F) was brighter than 9B8 opt+K33N in the sandwich background in HEK293 and NIH3T3 cells.
The variants 9B8 opt+K33N+T39T+K43R+Y68D (“V2”; SEQ ID NOs: 92 and 93), 9B8 opt+K33N+L27V+K43R+Y68D (SEQ ID NOs: 339 and 340), 9B8 opt+K33N+L27V+T39T+K43R+S66N (SEQ ID NOs: 341 and 342), and 9B8 opt+K33N+L27V+T39T+K43R+Y68D (“L27V”; SEQ ID NOs: 88 and 89) were subcloned into the Id-OgLuc-HT7 sandwich background as described above and assayed in HEK293 and NIH3T3 cells as described above. The luminescence generated by the sandwiched variants were compared to the luminescence generated by the […] sandwich (SEQ ID NOs: 59 and 60) (Table 38). The L27V sandwich (SEQ ID NOs: 90 and 91) and V2 sandwich (SEQ ID NOs: 94 and 95) had at least 1.3× fold-increase in luminescence in HEK293 and NIH3T3 cells.
The sandwich and non-sandwich versions of the variants V2, 9B8 opt+K33N+L27V+K43R+Y68D, 9B8 opt+K33N+L27V+T39T+K43R+S66N, and L27V were assayed in HEK293 and NIH3T3 cells as described in Example 37. The luminescence generated by the non-sandwiched variants was compared to the luminescence generated by the sandwiched variants (Table 39).

[4] = relative specificity for PBI-3939 compared to native coelenterazine

B1: L27V: 9B8 opt+K33N variant with L27V, T39T, K43R, Y68D (SEQ ID NO: 89) (protein)
chain: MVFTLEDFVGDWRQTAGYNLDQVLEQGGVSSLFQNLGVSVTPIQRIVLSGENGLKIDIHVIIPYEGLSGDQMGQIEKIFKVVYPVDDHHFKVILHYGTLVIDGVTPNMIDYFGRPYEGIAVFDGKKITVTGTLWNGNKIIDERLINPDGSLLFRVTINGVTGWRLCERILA
With B1 as the molecule, how does the Fold over coelenterazine ([1]; luminescence with PBI-3939 divided by luminescence with native coelenterazine, bacterial lysates) read?
The Fold over coelenterazine was 110.

And the “Fold over 9B8” value ([1]; luminescence with PBI-3939 normalized to 9B8 opt, bacterial lysates)?
The value was 1.8.

And the “Fold over Native Coelenterazine, E. coli” value [1, 4]?
The value was 85.2.

And the “luminescence normalized to 9B8 opt, HEK293” value (HEK293 cells; PBI-3939)?
The value was 1.6.

And the “Fold over 9B8 opt + K33N, HEK293” value (HEK293 cells; luminescence, PBI-3939)?
The value was 0.8.

And the “Fold over Native Coelenterazine, HEK293” value (HEK293 cells; [4])?
The value was 97.

What about the Km [2] of the same molecule?
The Km was 16 µM.

What about the 1/2 life hours [3] of the same molecule?
The 1/2 life hours was 21.7 h.

What about the “Fold-decrease in luminescence in the presence of sandwich background, NIH 3T3 cells” value (NIH3T3 cells) of the same molecule?
Its value is 18.
